The values below come from patent US20200317817A1 (XOMA US, published 2020).

Assay [1] addresses T1, human PTH1R overexpressed on CHO cells (human, UniProt Q03431 27-593).
T1 sequence (looked up): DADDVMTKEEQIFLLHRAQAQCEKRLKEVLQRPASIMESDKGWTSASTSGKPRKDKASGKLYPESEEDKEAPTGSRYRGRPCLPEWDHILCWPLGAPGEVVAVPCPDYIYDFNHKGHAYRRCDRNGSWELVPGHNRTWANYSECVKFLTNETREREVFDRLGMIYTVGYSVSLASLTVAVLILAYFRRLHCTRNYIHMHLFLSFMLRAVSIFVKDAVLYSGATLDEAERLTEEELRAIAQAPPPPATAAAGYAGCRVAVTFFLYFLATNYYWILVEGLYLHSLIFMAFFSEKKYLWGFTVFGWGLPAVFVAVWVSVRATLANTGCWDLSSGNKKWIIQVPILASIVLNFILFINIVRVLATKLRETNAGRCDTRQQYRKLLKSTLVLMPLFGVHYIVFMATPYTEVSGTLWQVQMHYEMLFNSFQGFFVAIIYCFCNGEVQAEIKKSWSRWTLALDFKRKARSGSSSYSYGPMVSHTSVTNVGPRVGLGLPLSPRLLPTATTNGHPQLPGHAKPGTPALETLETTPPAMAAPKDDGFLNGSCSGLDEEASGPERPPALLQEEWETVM
Put plainly: cell-based or functional assay.

Assay [2] deals with T2, mouse PTH1R overexpressed on CHO cells (mouse, UniProt P41593 27-591).
T2 sequence (looked up): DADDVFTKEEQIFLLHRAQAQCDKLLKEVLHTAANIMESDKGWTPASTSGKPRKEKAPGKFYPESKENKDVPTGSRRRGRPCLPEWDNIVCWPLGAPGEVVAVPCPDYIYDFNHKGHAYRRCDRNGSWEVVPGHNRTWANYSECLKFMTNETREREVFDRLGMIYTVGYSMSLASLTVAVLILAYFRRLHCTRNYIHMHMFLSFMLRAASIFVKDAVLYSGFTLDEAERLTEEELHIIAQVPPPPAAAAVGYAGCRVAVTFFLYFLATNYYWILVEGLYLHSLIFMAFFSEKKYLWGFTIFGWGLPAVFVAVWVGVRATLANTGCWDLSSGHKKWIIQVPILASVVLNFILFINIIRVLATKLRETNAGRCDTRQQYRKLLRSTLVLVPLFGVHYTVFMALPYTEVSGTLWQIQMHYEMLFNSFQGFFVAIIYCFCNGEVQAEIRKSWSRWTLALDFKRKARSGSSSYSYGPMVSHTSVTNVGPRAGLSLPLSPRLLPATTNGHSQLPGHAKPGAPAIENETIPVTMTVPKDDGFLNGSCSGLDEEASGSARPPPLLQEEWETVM
Kind of assay: cell-based or functional assay.

In assay [3] the target is T3, rat PTH1R on UMR106 cells (rat, UniProt P25961 27-591).
T3 construct: whole, on cells; also called UMR106 (Endogenous Rat PTH1R); native rat PTH1R
T3 sequence (looked up): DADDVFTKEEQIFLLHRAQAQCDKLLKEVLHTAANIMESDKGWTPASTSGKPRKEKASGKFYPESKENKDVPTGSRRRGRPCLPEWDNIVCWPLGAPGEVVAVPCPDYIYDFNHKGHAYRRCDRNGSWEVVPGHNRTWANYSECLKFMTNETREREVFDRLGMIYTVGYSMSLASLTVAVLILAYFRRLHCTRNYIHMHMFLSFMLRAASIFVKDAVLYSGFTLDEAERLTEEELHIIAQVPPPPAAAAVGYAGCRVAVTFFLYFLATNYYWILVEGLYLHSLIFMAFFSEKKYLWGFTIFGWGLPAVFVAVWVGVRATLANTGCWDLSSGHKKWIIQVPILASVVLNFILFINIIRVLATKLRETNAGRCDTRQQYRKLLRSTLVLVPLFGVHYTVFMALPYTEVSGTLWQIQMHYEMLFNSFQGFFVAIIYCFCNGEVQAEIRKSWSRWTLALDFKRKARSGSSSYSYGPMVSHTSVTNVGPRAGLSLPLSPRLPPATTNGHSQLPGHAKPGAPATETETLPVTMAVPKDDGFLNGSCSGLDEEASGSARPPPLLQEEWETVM
Put plainly: flow cytometry, 1 hr at 4 C. On the technique in general: In flow cytometry, cells or beads pass a laser one at a time.

Assay [4] deals with T4, recombinant N-terminal extracellular domain of the human PTH1R receptor (human, UniProt Q03431 27-188, limits assumed).
T4 construct: domain: N-terminal extracellular domain; Bought reagent; also called N-ECD PTH1R; PTH1R N-terminal ECD
T4 sequence (looked up): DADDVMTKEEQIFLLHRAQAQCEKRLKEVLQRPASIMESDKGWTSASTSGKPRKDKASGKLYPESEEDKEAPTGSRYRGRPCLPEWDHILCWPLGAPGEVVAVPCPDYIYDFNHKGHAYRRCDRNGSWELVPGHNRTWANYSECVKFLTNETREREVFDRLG
Put plainly: SPR, IgG captured, ECD injected. Here is the method:
An anti-human IgG-Fc CMS sensor chip (GE Healthcare) was prepared using standard amine coupling as described by the manufacturer's protocol for the capture Ab on a BIACORE 4000 system (GE Healthcare). Briefly, the chip surface was activated with a 10 minute injection at 10 μL/minute of a freshly mixed 1:1 solution of 0.1 M N-Hydroxysuccinimide (NHS) and 0.4 M 1-Ethyl-3-(3-dimethylaminopropyl) carbodiimide hydrochloride (EDC). Following the activation injection, 15 ug/mL anti-human IgG-Fc antibody in acetate pH 4.5 was injected at 10 μL/minute for 10 minutes to achieve a high density capture surface. 7 minutes of 1M Ethanolamine hydrochloride-NaOH pH 8.5 was injected to block the surface. The NHS, EDC, and Ethanolamine used were from the BIACORE Amine Coupling Kit.
Kinetic Analysis was performed using HBS-EP+(Teknova) with 2.5 mg/mL BSA (Sigma Aldrich, St. Louis Mo.). Antibodies were diluted to 0.5 μg/mL and captured to achieve a surface density of 100 to 200 RU. […] Injections were performed at 30 μL/minute for 240 seconds with a 360 second dissociation time. Regeneration was then performed with one 60 second injection 3M MgCl.
The data were analyzed using BIACORE 4000 Evaluation Software and was double referenced by subtracting both the blank flow cell data and the averaged bracketing blank injections. The data was fit by simultaneously fitting the an off-rate (kd) and on-rate (kₐ), and calculating the KD as KD=kd/kₐ.
In general terms: Surface plasmon resonance follows binding to a sensor surface in real time, without labels.

B1: XPA.85.332 (antibody, V domains shown)
VH: QMQLVQSGAEVKKPGSSVKVSCKASGGTFSSYAISWVRQAPGQGLEWMGGIIPIFGTANYAQKFQGRVTITADESTSTAYMELSSLRSEDTAVYYCARGYVVARLWGQGTLVTVSS
VL: ETTLTQSPAFMSASVGDRVTITCQASQDINNFLNWYQQKPGKAPKFLIYDASNLEKGVPSKFSGRGSGTEFTLTISSLQPEDIATYYCQQYRDFPLTFGQGTRLEIK
notes: Light-chain-shuffled variant of XPA.85.012
Consider B1, for which, in assay [1], the “IC50, inhibition of PTH(1-34)-induced cAMP accumulation” value was 12.1 nM and the “IC50, inhibition of PTHrP(1-34)-induced cAMP accumulation” value came out at 5.03 nM. The “IC50, inhibition of PTHrP(1-34)-induced cAMP accumulation” value in assay [2] was 2.3 nM. Moreover, the binding result in assay [3] is on record as “binds”. Also, in assay [4], the Kd (in general, the constant that tells how readily two partners part at equilibrium) was determined as 0.71 nM; the koff (in general, the first-order rate constant of dissociation) is 0.0017 s⁻¹; the kon (in general, the second-order rate constant of association) stood at 2.4e+06 M⁻¹ s⁻¹.

B2: XPA.85.344 (antibody, V domains shown)
VH: QMQLVQSGAEVKKPGSSVKVSCKASGGTFSSYAISWVRQAPGQGLEWMGGIIPIFGTANYAQKFQGRVTITADESTSTAYMELSSLRSEDTAVYYCARGYVVARLWGQGTLVTVSS
VL: DVVMTQTPLSLSVTPGQPASFSCKSTQSLLWRDGNTYLYWYLQKPGQSPQLLIYEVSGRFSGVPERFSGSGSGTDFTLEISRVEAEDVGVYYCMQSIHFPLTFGGGTKLEIK
notes: as for B1
Turning to B2, in assay [1], the “IC50, inhibition of PTH(1-34)-induced cAMP accumulation” value worked out at 15.5 nM and the “IC50, inhibition of PTHrP(1-34)-induced cAMP accumulation” value came to 15.3 nM. Also, in assay [2], the “IC50, inhibition of PTHrP(1-34)-induced cAMP accumulation” value is 3.89 nM. Also, in assay [3], the binding result is “binds”. In assay [4], the Kd came out at 0.18 nM, the koff came to 0.00023 s⁻¹ and the kon is 1.3e+06 M⁻¹ s⁻¹.

B3: XPA.85.333 (antibody, V domains shown)
VH: QMQLVQSGAEVKKPGSSVKVSCKASGGTFSSYAISWVRQAPGQGLEWMGGIIPIFGTANYAQKFQGRVTITADESTSTAYMELSSLRSEDTAVYYCARGYVVARLWGQGTLVTVSS
VL: DVVMTQTPLSLSVTPGQPASISCKSSQSLLHIDGKAYLYWYLQKPGQSPHLLIREVSTRFSGVSDRFTGSGSGTDFTLEISRVEAEDVGVYYCMQGLHLPPTFGQGTKVEIK
notes: as for B1
For the molecule B3, in assay [1], the “IC50, inhibition of PTH(1-34)-induced cAMP accumulation” value is 11.4 nM and the “IC50, inhibition of PTHrP(1-34)-induced cAMP accumulation” value is 5.61 nM. Besides, the “IC50, inhibition of PTHrP(1-34)-induced cAMP accumulation” value in assay [2] is 2.04 nM. Also, the binding result in assay [3] is reported as “binds”. Further, in assay [4], the Kd is 0.3 nM, the koff was 0.00054 s⁻¹ and the kon came to 1.8e+06 M⁻¹ s⁻¹.

B4: XPA.85.334 (antibody, V domains shown)
VH: QMQLVQSGAEVKKPGSSVKVSCKASGGTFSSYAISWVRQAPGQGLEWMGGIIPIFGTANYAQKFQGRVTITADESTSTAYMELSSLRSEDTAVYYCARGYVVARLWGQGTLVTVSS
VL: DIVMTQTPLSLSVTPGQPASITCKSSQSLLHIDGKTYLYWFLQKPGQPPQLLIYEVSNRFSGVPDRFSGTGSGTDFTLKISRVEAEDVGVYYCMQSLHFPITFGPGTRLEIK
notes: as for B1
For the molecule B4, in assay [1], the “IC50, inhibition of PTH(1-34)-induced cAMP accumulation (curve does not reach a plateau)” value turned out to be 51.2 nM and the “IC50, inhibition of PTHrP(1-34)-induced cAMP accumulation” value worked out at 12.4 nM. Also, the “IC50, inhibition of PTHrP(1-34)-induced cAMP accumulation” value in assay [2] stood at 3.32 nM. The binding result in assay [3] was “binds”. Further, in assay [4], the equilibrium dissociation constant (Kd) was determined as 0.25 nM, the koff turned out to be 0.00021 s⁻¹ and the kon stood at 860000 M⁻¹ s⁻¹.

B5: XPA.85.343 (antibody, V domains shown)
VH: QMQLVQSGAEVKKPGSSVKVSCKASGGTFSSYAISWVRQAPGQGLEWMGGIIPIFGTANYAQKFQGRVTITADESTSTAYMELSSLRSEDTAVYYCARGYVVARLWGQGTLVTVSS
VL: DVVMTQTPLSLSVTPGQPASISCKSSQSLLHIDGRTYLYWYLQKAGQPPQLLIYEVSNRFSGVPDRFSGSGSGTDFTLKISRVEAEDVGVYYCMQSIHFPLTFGGGTKLEIK
notes: as for B1
In the case of B5, in assay [1], the “IC50, inhibition of PTH(1-34)-induced cAMP accumulation” value amounted to 14.4 nM and the “IC50, inhibition of PTHrP(1-34)-induced cAMP accumulation” value stood at 17.8 nM. Further, the “IC50, inhibition of PTHrP(1-34)-induced cAMP accumulation” value in assay [2] turned out to be 3.87 nM. Also, in assay [3], the binding result is reported as “binds”. For the same molecule, in assay [4], the Kd is 0.42 nM, the koff turned out to be 0.00045 s⁻¹ and the kon was found to be 1.1e+06 M⁻¹ s⁻¹.
